From US20240109974A1 (SHANDONG SIMCERE BIOPHARMACEUTICAL, published 2024) come the findings set out here.

Changes are numbered by the printed parent chain.

To fix the notation:
T1: human TNFR2 on the surface of CHO-TNFR2 cells (human, UniProt P20333 23-461)
T1 construct: whole, on cells
T1 sequence (looked up): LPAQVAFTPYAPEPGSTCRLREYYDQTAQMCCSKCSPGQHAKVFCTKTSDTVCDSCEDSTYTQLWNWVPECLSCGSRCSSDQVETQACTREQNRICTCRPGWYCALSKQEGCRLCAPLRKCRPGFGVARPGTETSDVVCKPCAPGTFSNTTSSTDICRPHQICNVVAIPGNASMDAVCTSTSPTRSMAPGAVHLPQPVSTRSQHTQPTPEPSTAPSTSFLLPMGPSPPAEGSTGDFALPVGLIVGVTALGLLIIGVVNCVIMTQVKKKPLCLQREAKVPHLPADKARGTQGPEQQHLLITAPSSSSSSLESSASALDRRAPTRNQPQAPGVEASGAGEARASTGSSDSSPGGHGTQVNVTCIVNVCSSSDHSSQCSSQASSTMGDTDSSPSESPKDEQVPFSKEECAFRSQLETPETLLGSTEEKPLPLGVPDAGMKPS

T2: Human TNFR2-His (Sino 10417-H08H) (human, UniProt P20333 23-257)
T2 construct: Bought protein; also called recombinant human TNFR2 protein; not shown: His tag
T2 sequence (looked up): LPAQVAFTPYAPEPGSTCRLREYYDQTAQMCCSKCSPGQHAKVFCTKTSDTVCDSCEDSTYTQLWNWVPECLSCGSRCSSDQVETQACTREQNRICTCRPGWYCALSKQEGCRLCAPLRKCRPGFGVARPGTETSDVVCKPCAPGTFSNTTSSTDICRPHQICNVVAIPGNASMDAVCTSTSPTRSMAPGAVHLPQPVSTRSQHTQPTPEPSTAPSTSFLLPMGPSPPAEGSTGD

B1: 219-Hu3 (antibody, V domains shown)
VH: QVQLVQSGAEVKKPGSSVKVSCKASGYSFTNYWMNWVRQAPGQGLEWMGMIHPSDTETRLNQNFKDRVTITADKSTSTAYMELSSLRSEDTAVYYCARGEGLGAARSVSMDYWGQGTLVTVSS
VL: DIQMTQSPSSLSASVGDRVTITCRASQDISNYLNWYQQKPDGTVKLLIYYTAILHSGVPSRFSGSGSGTDYSLTISSLQPEDFATYFCQQGNTLPWTFGQGTKVEIK
notes: also called VH5 + VL5
B2: 219-Hu5 (antibody, V domains shown)
VH: B1 VH with A72V
VL: B1 VL
notes: also called VH7 + VL5
B3: 219-Hu4 (antibody, V domains shown)
VH: B1 VH with R38K, M48I, R67K, V68A, I70L, A72V
VL: B1 VL
notes: also called VH6 + VL5
B4: 219-Hu1 (antibody, V domains shown)
VH: B1 VH with S16A, G44R, A72R, K74T, T76A
VL: B1 VL
notes: also called VH3 + VL5
B5: 219-Hu2 (antibody, V domains shown)
VH: B1 VH with R67K, V68A
VL: B1 VL
notes: also called VH4 + VL5
B6: 001-Hu5 (antibody, V domains shown)
VH: EVQLVESGGGLVQPGGSLRLSCAASGFAFSTYDLSWVRQAPGKGLEWVAYINNGGISTYYSDTVKGRFTISRDNAKNTLYLQMNSLRAEDTAVYYCVRGPFYGSANYFDYWGQGTLVTVSS
VL: DIQMTQSPSSLSASVGDRVTITCRTSESIYSNLPWYQQKPGKSPKLLVYDATKLAEGVPSRFSGSGSGTDYTLTISSLQPEDFATYYCQHFWVTPWTFGQGTKVEIK
notes: Humanized form of #001; also called VH1 + VL4
B7: 001-Hu1 (antibody, V domains shown)
VH: B6 VH
VL: B6 VL with S43A, V48L
notes: Humanized form of #001; also called VH1 + VL1
B8: 001-Hu3 (antibody, V domains shown)
VH: B6 VH
VL: B6 VL with S43A, V48I
notes: Humanized form of #001; also called VH1 + VL3
B9: 001-Hu2 (antibody, V domains shown)
VH: B6 VH with T78S
VL: B6 VL with V48I, Y71F
notes: Humanized form of #001; also called VH2 + VL2
B10: 001-Hu4 (antibody, V domains shown)
VH: B6 VH with T78S
VL: B6 VL
notes: Humanized form of #001; also called VH2 + VL4

The first test has as its target T1, human TNFR2 on the surface of CHO-TNFR2 …. The experiment in a line: competition flow cytometry on CHO-TNFR2 cells, competitor TNFα-biotin; IC50 against 219-WT. The procedure: (§1) CHO stable cells highly expressing human TNFR2 were used for the experiment (the same as CHO-TNFR2 in Example 4). The CHO-TNFR2 cells were digested, washed twice with DPBS, then stained with Live/Dead (L/D) (20 minutes at room temperature), and plated at a density of 1×10⁵ cells/50 μl/well. A test anti-TNFR2 antibody was diluted to 6 μg/ml with a staining buffer as the starting concentration: the antibody was subjected to 3.33-fold gradient dilution, with a total of 7 concentration points. The diluted antibody was added to the plated cells at 50 μl/well, and the mixture was mixed well by gentle pipetting, and incubated at 4° C. for 30 minutes. Then the diluted 100 ng/ml of human TNFα-biotin was added at 100 μl/well, and the mixture was mixed well by gentle pipetting, and then incubated at 4° C. for 30 minutes. The mixture was washed twice with a staining buffer, and then 0.12 μg/ml PE-streptavidin (BioLegend, Cat #405204) was added at 100 μl/well; the resulting mixture was incubated at 4° C. for 30 minutes. The mixture was washed twice with a staining buffer, and then 150 μl of staining buffer was added to resuspend the cells; signals were detected by a flow cytometer (Thermo Attune NxT). The inhibitory curve of an antibody was drawn with antibody concentration as the abscissa and corresponding MFI value as the ordinate, and fitted with four parameters (GraphPad Prism9) to calculate the IC50 value. The smaller the IC50 value, the stronger the ability of an antibody to inhibit the binding of human TNFα to human TNFR2. The blocking effect of a humanized antibody was normalized to its corresponding human-murine chimeric WT antibody. The higher the percentage value, the better the inhibitory effect of the humanized antibody.
(In general: A flow cytometer gives signals particle by particle.)
For the molecule B1, the “% Relative activity (WT antibody/test antibody)” value is 120%.

For the molecule B2, the “% Relative activity (WT antibody/test antibody)” value is 138%.

In the case of B3, the “% Relative activity (WT antibody/test antibody)” value is 124%.

On to B4, for which the “% Relative activity (WT antibody/test antibody)” value amounted to 106%.

Turning to B5, the “% Relative activity (WT antibody/test antibody)” value is 127%.

The target is the same in a further test. The experiment in a line: competition flow cytometry on CHO-TNFR2 cells, competitor TNFα-biotin; IC50 against 001-WT. The procedure:
as §1
On to B6, for which the “% Relative activity (WT antibody/test antibody)” value came to 86.2%.

Take B7: the “% Relative activity (WT antibody/test antibody)” value worked out at 98.3%.

With B8, the “% Relative activity (WT antibody/test antibody)” value came to 100%.

Take B9: the “% Relative activity (WT antibody/test antibody)” value came to 84.3%.

Turning to B10, the “% Relative activity (WT antibody/test antibody)” value is 92.3%.

The target of the next test is T2, Human TNFR2-His (Sino 10417-H08H). The test can be described thus: ELISA, human TNFR2-His coated; EC50 against 219-WT. The procedure:
The test humanized antibody against TNFR2 (as described in Example 1, the antibody was comprised of variable regions linked to IgG-Fc; the WT chimeric antibody also adopted the IgG-Fc structure) was subjected to 3.33-fold gradient dilution, loaded with 100 μl/well, and incubated with shaking at room temperature for 1.5 hours. The plate was washed, and then a working solution of murine anti-human IgG Fc-HRP (diluted at 1:10000) was added, loaded with 100 μl/well, and incubated with shaking at room temperature for 1.0 hour. The plate was washed again, and then the substrate TMB of HRP was added to develop colour. A stop solution was added to stop the reaction, and then a microplate reader (MD 13) was used to read the absorbance value. The binding curve of an antibody was drawn with antibody concentration as the abscissa and corresponding OD value as the ordinate, and fitted with four parameters (GraphPad Prism9) to calculate the EC50 value. The smaller the EC50 value, the stronger the binding ability of an antibody to human/cynomolgus monkey TNFR2. The binding effect of a humanized antibody was normalized to its corresponding human-murine chimeric antibody WT (see SEQ ID NOs: 38-43 for the sequence). The higher the percentage value, the better the binding effect of the humanized antibody. The results of binding of an anti-TNFR2 antibody to a human TNFR2 protein are shown in FIG. 1 and Table 4, and the results of binding of an anti-TNFR2 antibody to cynomolgus monkey TNFR2 are shown in FIG. 2 and Table 4.
In general terms: In an ELISA, binding on a coated surface is turned into a signal by an enzyme label.
For the molecule B1, the “% Relative activity (WT antibody/test antibody)” value was found to be 84.4%.

In the case of B2, the “% Relative activity (WT antibody/test antibody)” value is 96.5%.

For B3, the “% Relative activity (WT antibody/test antibody)” value was 99.7%.

For B4, the “% Relative activity (WT antibody/test antibody)” value was found to be 83.1%.

Turning to B5, the “% Relative activity (WT antibody/test antibody)” value worked out at 95.9%.

The next test concerns the target T1, human TNFR2 on the surface of CHO-TNFR2 …. The test can be described thus: competition flow cytometry on CHO-TNFR2 cells, competitor TNFα-biotin; AUC against 001-WT. The procedure:
as §1
Turning to B6, the “% Relative activity (WT antibody/test antibody)” value is 93.1%.

Consider B7, for which the “% Relative activity (WT antibody/test antibody)” value was found to be 97.4%.

Take B8: the “% Relative activity (WT antibody/test antibody)” value amounted to 97.8%.

For B9, the “% Relative activity (WT antibody/test antibody)” value worked out at 95.8%.

Consider B10, for which the “% Relative activity (WT antibody/test antibody)” value was 93.7%.
